From article PMC7524730 come the findings set out here.

One data set addresses PRMT5 (UniProt O14744). As to the kind of experiment: co-IP and immunoblot. To be noted: reference: LSH wild type; sites S503. In general terms: In western blotting, separated proteins are transferred to a membrane and probed.

Like-named read-outs stand apart in the source and are kept apart here.

In the case of “LSH (lymphoid-specific helicase; HELLS, PASG, SMARCA6): R541A”, the other entry (methylation at R541) is listed as “no change”. Take “LSH (lymphoid-specific helicase; HELLS, PASG, SMARCA6): Lambda Protein Phosphatase (λPP)”: the other entry (phosphorylation at S503) is reported as “increases”.

For “LSH (lymphoid-specific helicase; HELLS) (from UniProt Q9NRZ9) LSH S503A”, the “binding against the reference” value with PRMT5 is listed as “stronger”.

Regarding “LSH (lymphoid-specific helicase; HELLS, PASG, SMARCA6): S503D phosphomimic”, the other result (phosphorylation at S503) is given as “decreases”. In the case of “LSH (lymphoid-specific helicase; HELLS, PASG, SMARCA6): R507A”, the other entry (methylation at R507) was “no change”.

Consider “LSH (lymphoid-specific helicase; HELLS, PASG, SMARCA6): R309A”, for which, where the note is “methylation at R309”, the localisation_or_trafficking result is “no change” and the other entry is recorded as “increases”.

Consider “LSH (lymphoid-specific helicase; HELLS, PASG, SMARCA6): MAPK1 shRNA knockdown; LY3214996 (MAPK1/2 inhibitor)”, for which the other entry (phosphorylation at S503) was “increases”. For “LSH (lymphoid-specific helicase; HELLS, PASG, SMARCA6): S503A”, under “phosphorylation at S503”, the localisation_or_trafficking entry is recorded as “no change” and the other result is listed as “increases”.
